Reference: US20180057596A1 (AstraZeneca / MedImmune, published 2018)
Numbering of substitutions follows the chain as printed.

T1: human IL4Rα/Fc (R and D Systems 604-4R) (human, UniProt P24394 26-231, limits assumed, biotin labelled in the assay of Example 5)
T1 construct: bought protein; also called IL-4Rα/Fc (R&D systems Cat. No. 604-4R-050); not shown: Fc part of the bought fusion
T1 sequence (looked up): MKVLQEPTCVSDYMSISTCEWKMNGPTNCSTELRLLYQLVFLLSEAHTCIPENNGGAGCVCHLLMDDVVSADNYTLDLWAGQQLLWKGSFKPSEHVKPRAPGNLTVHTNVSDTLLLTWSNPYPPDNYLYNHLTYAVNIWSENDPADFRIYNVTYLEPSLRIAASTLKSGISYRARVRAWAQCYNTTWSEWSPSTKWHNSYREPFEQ

B1: Antibody 3 scFv (scFv, V domains shown)
VH: QVQLVQSGAEVKKPGASVKVSCKASGYAFTSYYMHWARQAPGQGLEWMGIINPSGGSTSYAQKFQGRVTMTRDTSTSTVYMELSSLRSEDTAVYYCARGKLLKNPWGKGTLVTVSS
VL: QSVLTQPPSVSAAPGQKVTISCSGGSSNIGNSYVSWYQQLPGTAPKLLIYDNNKRPSGIPDRFSGSKSGTSATLAITGLQTGDEADYYCGTWFGTPASNYVFGTGTKLTVL
notes: tested as purified scFv
B2: Antibody 20 scFv (scFv, V domains shown)
VH: B1 VH with L101Y, L102W, K103M, N104Y, P105D
VL: B1 VL with F93D, G94T, T95S, P96T, A97V, S98W, N99E, Y100W, V101P
notes: tested as purified scFv
B3: Antibody 4 scFv (scFv, V domains shown)
VH: B1 VH with L101W, L102W, K103L, N104Y, P105N
VL: B1 VL with F93D, G94T, T95S, P96S, A97P, S98P, N99Q, Y100P, V101I
notes: tested as purified scFv
B4: Antibody 30 scFv (scFv, V domains shown)
VH: B1 VH with L101Y, L102W, K103M, N104Y, P105D
VL: QSVLTQPPSVSAAPGQKVTISCSGGSSNIGNSYVSWYQRLPGAAPKLLIYDNNKRPSGIPDRFSGSKSGTSATLAITGLQTGDEADYYCGTWDTSTVWEWPFGTGTKLTVL
notes: tested as purified scFv
B5: Antibody 9 scFv (scFv, V domains shown)
VH: B1 VH with L101W, L102W, K103L, N104Y, P105N
VL: B4 VL with R39Q, A43T, V97T, W98M, E99Y, W100P, P101L
notes: tested as purified scFv
B6: Antibody 27 scFv (scFv, V domains shown)
VH: B1 VH with K12R, S88P, L101Y, L102W, K103M, N104Y, P105D, L111Q
VL: B4 VL with S9L, A43T
notes: tested as purified scFv
B7: Antibody 29 scFv (scFv, V domains shown)
VH: B1 VH with L101Y, L102W, K103M, N104Y, P105D, L111R
VL: B4 VL with R39Q, A43T, T96P
notes: tested as purified scFv
B8: Antibody 26 scFv (scFv, V domains shown)
VH: B1 VH with L101Y, L102W, K103M, N104Y, P105D
VL: B4 VL with R39Q, A43T, Y88F
notes: tested as purified scFv
B9: Antibody 21 scFv (scFv, V domains shown)
VH: B1 VH with T58A, L101Y, L102W, K103M, N104Y, P105D
VL: B4 VL with R39Q, A43T, D86V, Y88F
notes: tested as purified scFv
B10: Antibody 2 scFv (scFv, V domains shown)
VH: B1 VH with L101W, L102W, K103L, N104Y, P105N
VL: B1 VL with F93D, G94T, T95S, P96Q, A97P, S98P, Y100P, V101L
notes: tested as purified scFv
B11: Antibody 28 scFv (scFv, V domains shown)
VH: B1 VH with L101Y, L102W, K103M, N104Y, P105D, K108N
VL: B4 VL with Q1L, S2P, N28S, R39Q, S66F, K67R, T96P
notes: tested as purified scFv
B12: Antibody 39 scFv (scFv, V domains shown)
VH: B1 VH with S54R, L101Y, L102W, K103M, N104Y, P105D
VL: B4 VL with R39Q, A43T, V97A
notes: tested as purified scFv
B13: Antibody 8 scFv (scFv, V domains shown)
VH: B1 VH with L101W, L102W, K103W, N104Q, P105Y
VL: B4 VL with R39Q, A43T, V97T, W98Y, E99H, W100P, P101I
notes: tested as purified scFv
B14: Antibody 32 scFv (scFv, V domains shown)
VH: B1 VH with L101Y, L102W, K103M, N104Y, P105D
VL: B4 VL with R39Q, A43T, Y88F, V97A
notes: tested as purified scFv
B15: Antibody 23 scFv (scFv, V domains shown)
VH: B1 VH with K12R, L101Y, L102W, K103M, N104Y, P105D
VL: B4 VL with S32N, R39Q, A43T, S57P
notes: tested as purified scFv
B16: Antibody 25 scFv (scFv, V domains shown)
VH: B1 VH with S54R, T58A, T69S, L101Y, L102W, K103M, N104Y, P105D
VL: B4 VL with R39Q, A43T, S71T, D93V
notes: tested as purified scFv
B17: Antibody 34 scFv (scFv, V domains shown)
VH: B1 VH with T69S, L101Y, L102W, K103M, N104Y, P105D
VL: B4 VL with R39Q, A43T, Y88F
notes: tested as purified scFv
B18: Antibody 19 scFv (scFv, V domains shown)
VH: B1 VH with L101W, L102W, K103W, N104Q, P105H
VL: B4 VL with R39Q, A43T, V97T, W98Y, E99H, W100P, P101I
notes: tested as purified scFv
B19: Antibody 33 scFv (scFv, V domains shown)
VH: B1 VH with V11E, L101Y, L102W, K103M, N104Y, P105D
VL: B4 VL with V3A, R39Q, A43T, Y88F
notes: tested as purified scFv
B20: Antibody 36 scFv (scFv, V domains shown)
VH: B1 VH with T58A, L101Y, L102W, K103M, N104Y, P105D
VL: B4 VL with R39Q, A43T, T94S
notes: tested as purified scFv
B21: Antibody 31 scFv (scFv, V domains shown)
VH: B1 VH with L101Y, L102W, K103M, N104Y, P105D
VL: B4 VL with N28S, R39Q, A43T, D93A, T96P
notes: tested as purified scFv
B22: Antibody 24PGL scFv (scFv, V domains shown)
VH: B1 VH with A37V, S54R, L101Y, L102W, K103M, N104Y, P105D
VL: B4 VL with R39Q, A43T, A75G, Y88F
notes: tested as purified scFv
B23: Antibody 22 scFv (scFv, V domains shown)
VH: B1 VH with L101Y, L102W, K103M, N104Y, P105D
VL: B4 VL with S2P, R39Q, A43T, Y88F
notes: tested as purified scFv
B24: Antibody 5 scFv (scFv, V domains shown)
VH: B1 VH with L101W, L102W, K103L, N104Y, P105D
VL: B4 VL with R39Q, A43T, T96S, V97P, W98P, E99Q, W100P, P101I
notes: tested as purified scFv
B25: Antibody 15 scFv (scFv, V domains shown)
VH: B1 VH with L101W, L102W, K103L, N104Y, P105N
VL: B4 VL with R39Q, A43T, V97H, W98R, E99H, W100P, P101L
notes: tested as purified scFv
B26: Antibody 12 scFv (scFv, V domains shown)
VH: B1 VH with L101W, L102W, K103F, N104Y, P105D
VL: B4 VL with R39Q, A43T, V97T, W98M, E99Y, W100P, P101L
notes: tested as purified scFv
B27: Antibody 17 scFv (scFv, V domains shown)
VH: B1 VH with L101W, L102W, K103W, N104Q, P105H
VL: B4 VL with R39Q, A43T, T96P, W98D, E99R, W100P, P101I
notes: tested as purified scFv
B28: Antibody 6 scFv (scFv, V domains shown)
VH: B1 VH with L101Y, L102W, K103M, N104Y, P105D
VL: B4 VL with R39Q, A43T, V97T, W98Y, E99H, W100P, P101I
notes: tested as purified scFv
B29: Antibody 18 scFv (scFv, V domains shown)
VH: B1 VH with L101W, L102W, K103W, N104Q, P105H
VL: B4 VL with R39Q, A43T, V97T, W98P, E99M, W100P, P101V
notes: tested as purified scFv
B30: Antibody 10 scFv (scFv, V domains shown)
VH: B1 VH with L101W, L102W, K103L, N104Y, P105D
VL: B4 VL with R39Q, A43T, W98L, E99T, W100P, P101I
notes: tested as purified scFv
B31: Antibody 13 scFv (scFv, V domains shown)
VH: B1 VH with L101W, L102W, K103L, N104Y, P105D
VL: B4 VL with R39Q, A43T, V97T, W98L, E99Q, W100P, P101L
notes: tested as purified scFv
B32: Antibody 7 scFv (scFv, V domains shown)
VH: B1 VH with L101W, L102W, K103W, N104Q, P105Y
VL: B4 VL with R39Q, A43T, T96S, V97P, W98P, E99Q, W100P, P101I
notes: tested as purified scFv
B33: Antibody 16 scFv (scFv, V domains shown)
VH: B1 VH with L101W, L102W, K103L, N104Y, P105N
VL: B4 VL with R39Q, A43T, V97T, W98Y, E99H, W100P, P101I
notes: tested as purified scFv
B34: Antibody 11 scFv (scFv, V domains shown)
VH: B1 VH with L101W, L102W, K103F, N104Y, P105D
VL: B1 VL with F93D, G94T, T95S, A97S, S98M, N99I, Y100P, V101L
notes: tested as purified scFv
B35: Antibody 14 scFv (scFv, V domains shown)
VH: B1 VH with L101W, L102W, K103L, N104Y, P105N
VL: B1 VL with F93D, G94T, T95S, A97P, S98T, N99K, Y100P, V101L
notes: tested as purified scFv
B36: Antibody 24 scFv (scFv, V domains shown)
VH: B1 VH with S54R, L101Y, L102W, K103M, N104Y, P105D
VL: B4 VL with R39Q, A43T, Y88F
notes: tested as purified scFv

Columns and labels:
[1] = target: T1, human IL4Rα/Fc (R and D Systems 604-4R); experiment: HTRF receptor-ligand assay, purified scFv against biotinylated human IL4
[2] = target: T2, cynomolgus IL4Rα/Fc HIS6 (HEK expressed) (cynomolgus monkey); experiment: HTRF receptor-ligand assay, purified scFv against biotinylated cynomolgus IL4
T2 construct: also called Cyno IL4R; cynomolgus IL-4Rα HIS Fc (in house HEK-EBNA derived); not shown: HIS6 tag
T2 sequence (chain, as listed by the source): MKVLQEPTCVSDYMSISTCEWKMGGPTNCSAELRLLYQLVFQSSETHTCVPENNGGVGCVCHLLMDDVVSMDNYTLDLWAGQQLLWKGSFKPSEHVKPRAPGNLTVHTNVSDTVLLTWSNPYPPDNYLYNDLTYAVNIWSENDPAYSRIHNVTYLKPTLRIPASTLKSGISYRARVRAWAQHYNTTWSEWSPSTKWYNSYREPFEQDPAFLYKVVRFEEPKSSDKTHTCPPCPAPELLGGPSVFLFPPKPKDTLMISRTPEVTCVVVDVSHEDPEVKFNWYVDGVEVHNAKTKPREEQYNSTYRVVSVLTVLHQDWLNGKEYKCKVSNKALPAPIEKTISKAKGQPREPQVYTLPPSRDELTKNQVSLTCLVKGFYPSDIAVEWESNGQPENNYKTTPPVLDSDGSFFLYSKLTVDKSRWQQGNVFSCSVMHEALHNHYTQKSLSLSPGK

Binder | Ki [1] [pM] | Ki [2] [pM]
B1 | 500 | 48000
B2 | 700 | 4200
B3 | 800 | 6800
B4 | 69 | 3600
B5 | 100 | 12900
B6 | 63 | 2800
B7 | 61 | 2400
B8 | 100 | 1200
B9 | 31 | 1000
B10 | 600 | 4300
B11 | 94 | 1800
B12 | 27 | 1600
B13 | 400 | 9400
B14 | 75 | 1300
B15 | 200 | 4800
B16 | 39 | 1300
B17 | 56 | 1200
B18 | 800 | 18500

Binder | Ki [1] [pM] | Ki [2] [pM]
B19 | 92 | 1400
B20 | 100 | 5300
B21 | 44 | 2200
B22 | 65 | 700
B23 | 300 | 2600
B24 | 600 | 3800
B25 | 1000 | 32300
B26 | 300 | 7200
B27 | 900 | 43500
B28 | 300 | 3500
B29 | 700 | 56500
B30 | 500 | 19600
B31 | 300 | 22200
B32 | 1100 | 16500
B33 | 400 | 8700
B34 | 700 | 26100
B35 | 600 | 27700
B36 | 49 | 800
